Experiment [1] addresses human CD3 epsilon (CD3ε) (Homo sapiens) (UniProt P07766).
Experiment [2] has as its target human GUCY2C (guanylyl cyclase 2C), recombinant protein (human) (UniProt P25092).
UniProt P25092, sequence (P25092 24-1073): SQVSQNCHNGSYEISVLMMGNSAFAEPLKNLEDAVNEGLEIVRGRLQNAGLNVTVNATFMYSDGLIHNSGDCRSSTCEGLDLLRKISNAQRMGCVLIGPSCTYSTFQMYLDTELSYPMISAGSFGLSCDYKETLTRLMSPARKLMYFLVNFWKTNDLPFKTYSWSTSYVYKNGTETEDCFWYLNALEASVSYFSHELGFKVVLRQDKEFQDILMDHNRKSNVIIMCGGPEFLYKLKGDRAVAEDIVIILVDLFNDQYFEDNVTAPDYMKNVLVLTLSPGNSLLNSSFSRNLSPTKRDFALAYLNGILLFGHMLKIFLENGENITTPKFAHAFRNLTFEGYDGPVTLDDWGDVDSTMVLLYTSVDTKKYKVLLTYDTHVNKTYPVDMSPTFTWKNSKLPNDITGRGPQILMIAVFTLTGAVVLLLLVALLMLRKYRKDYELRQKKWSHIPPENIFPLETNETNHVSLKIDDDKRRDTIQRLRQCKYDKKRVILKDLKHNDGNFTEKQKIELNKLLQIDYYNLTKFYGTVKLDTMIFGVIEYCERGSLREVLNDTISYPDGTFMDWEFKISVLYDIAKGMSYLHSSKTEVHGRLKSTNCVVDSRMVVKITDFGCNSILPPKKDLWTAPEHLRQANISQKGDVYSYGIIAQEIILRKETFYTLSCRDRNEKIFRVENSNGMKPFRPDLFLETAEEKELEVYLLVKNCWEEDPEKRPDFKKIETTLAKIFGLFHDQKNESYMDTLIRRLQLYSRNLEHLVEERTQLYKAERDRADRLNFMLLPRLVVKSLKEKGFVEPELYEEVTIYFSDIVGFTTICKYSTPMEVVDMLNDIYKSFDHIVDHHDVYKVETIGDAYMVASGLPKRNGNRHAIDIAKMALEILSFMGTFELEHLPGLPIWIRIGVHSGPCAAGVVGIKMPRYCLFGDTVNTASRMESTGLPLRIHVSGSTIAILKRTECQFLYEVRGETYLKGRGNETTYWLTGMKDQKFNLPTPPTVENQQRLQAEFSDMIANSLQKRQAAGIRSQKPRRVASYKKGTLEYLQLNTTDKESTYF

UniProt P07766, sequence (P07766 23-207): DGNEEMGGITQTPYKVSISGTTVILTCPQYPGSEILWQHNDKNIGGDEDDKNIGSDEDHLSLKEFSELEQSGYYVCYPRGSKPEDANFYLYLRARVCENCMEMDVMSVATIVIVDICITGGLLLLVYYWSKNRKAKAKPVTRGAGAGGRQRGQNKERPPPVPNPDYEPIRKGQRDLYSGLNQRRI

For the substance “PF-07062119, anti-GUCY2C x anti-CD3ε T cell bispecific antibody (diabody-Fc)”, the results for the fold lower affinity than GUCY2C-0247 in experiment [1] and in experiment [2] were 7.2 fold and 2.5 fold, respectively.
